Assay results as given in patent US20230355720A1, “PHARMACEUTICAL COMPOSITION FOR PREVENTING OR TREATING BONE DISEASES, COMPRISING TRIPLE AGONIST OR CONJUGATE THEREOF HAVING ACTIVITY WITH RESPECT TO ALL OF GLUCAGON, GLP-1 AND GLP RECEPTORS” (HANMI PHARM. CO., LTD., priority 2020, published 2023).
Bridge positions count the residues as written; N and C are the ends. Square brackets hold non-standard residues; d marks the D form. Ends that are not written are not given here. * marks the point of attachment. Acetyl(2-(4-imidazolyl)) = O=C(Cc1c[nH]cn1)*; Aib = CC(C)(N)C(=O)O

T1: human GIP receptor (human, UniProt P48546 22-466)
T1 sequence (looked up): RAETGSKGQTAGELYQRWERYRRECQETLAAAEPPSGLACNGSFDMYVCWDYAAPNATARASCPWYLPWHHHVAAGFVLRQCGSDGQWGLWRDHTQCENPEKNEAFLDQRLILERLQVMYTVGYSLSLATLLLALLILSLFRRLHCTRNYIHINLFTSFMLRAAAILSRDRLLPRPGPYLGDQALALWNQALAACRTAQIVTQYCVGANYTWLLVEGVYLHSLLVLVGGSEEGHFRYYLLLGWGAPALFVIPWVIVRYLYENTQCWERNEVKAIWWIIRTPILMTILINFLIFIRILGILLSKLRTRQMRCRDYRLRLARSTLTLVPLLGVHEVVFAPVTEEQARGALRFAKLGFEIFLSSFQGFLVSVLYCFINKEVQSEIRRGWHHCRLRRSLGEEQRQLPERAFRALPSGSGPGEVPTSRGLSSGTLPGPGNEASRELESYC


Experiments:
Experiment in all cases: cell-based or functional assay
[1] = target: T1, human GIP receptor
[2] = target: human GLP-1 receptor (human, UniProt P43220 24-463)
[3] = target: human GCG receptor (human, UniProt P47871 26-477)
Chain of human GCG receptor (P47871 26-477): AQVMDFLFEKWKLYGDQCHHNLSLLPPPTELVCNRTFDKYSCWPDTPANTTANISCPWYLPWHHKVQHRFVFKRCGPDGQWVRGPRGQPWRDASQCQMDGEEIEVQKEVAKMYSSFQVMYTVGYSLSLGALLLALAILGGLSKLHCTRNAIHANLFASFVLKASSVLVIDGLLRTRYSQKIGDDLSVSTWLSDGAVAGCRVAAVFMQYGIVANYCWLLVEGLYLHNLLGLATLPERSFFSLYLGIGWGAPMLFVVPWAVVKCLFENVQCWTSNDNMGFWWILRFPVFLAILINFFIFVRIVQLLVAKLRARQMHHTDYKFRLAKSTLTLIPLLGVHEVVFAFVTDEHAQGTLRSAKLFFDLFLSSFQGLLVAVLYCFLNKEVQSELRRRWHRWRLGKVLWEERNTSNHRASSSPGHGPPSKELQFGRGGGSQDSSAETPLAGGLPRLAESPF

Binder	In vitro activity (%) compared with native peptide, vs GIP [1] [%]	In vitro activity (%) compared with native peptide, vs GLP-1 [2] [%]	In vitro activity (%) compared with native peptide, vs Glucagon [3] [%]
H[Aib]QGTFTSDKSKYLDERACQDFVQWLLDGGPSSGAPPPS (not fully specified) [triple agonist of SEQ ID NO: 40]	< 0.1	75.2	< 0.1
H[Aib]QGTFTSDYSIAMDEIHQKDFVNWLLNTC (bridge 16-20) [triple agonist of SEQ ID NO: 57]	0.3	11.7	< 0.1
H[Aib]QGTFTSDYSKYLDECRQKEFVQWLLNGGPSSGAPPPSG (bridge 16-20) [triple agonist of SEQ ID NO: 37]	2.2	236	6.21
Y[Aib]QGTFTSDYSKYLDEKRAKEFVQWLLDHHCSSGQPPPS (bridge 16-20) [triple agonist of SEQ ID NO: 43]	3.7	12.6	88.4
[Acetyl(2-(4-imidazolyl))][Aib]QGTFTSDYSIAMDEKHCKDFVNWLLNTK (bridge 16-20; not fully specified) [triple agonist of SEQ ID NO: 60]	8.2	106	< 0.1
Y[Aib]QGTFTSDYSKYLDEKRAKEFVQWLLDHHPSSGQPPPSC (bridge 16-20) [triple agonist of SEQ ID NO: 42]	7.8	33.9	206
H[Aib]QGTFTSDVSSYLLGQQQKEFIAWLVKGGGPSSGAPPPSC [triple agonist of SEQ ID NO: 5]	< 0.1	42.1	< 0.1
H[Aib]QGTFTSDYSKYLDEKRQKEFVQWLLNTKC (bridge 16-20) [triple agonist of SEQ ID NO: 58]	0.2	39.1	2.6
H[Aib]QGTFTSDYSKYLDEKRAKEFVQWLLDHHPSSGQPPPSC (bridge 16-20) [triple agonist of SEQ ID NO: 50]	2.7	67.4	50.5
[Acetyl(2-(4-imidazolyl))][Aib]QGTFTSDYSIAMDEIACKDFVNWLLNTK (bridge 16-20; not fully specified) [triple agonist of SEQ ID NO: 61]	2.8	59.8	< 0.1
H[Aib]QGTFTSDVSSYLDGQAAKEFIAWLVKGC [triple agonist of SEQ ID NO: 1]	< 0.1	3.2	< 0.1
[Acetyl(2-(4-imidazolyl))][Aib]QGTFTSDKSSYLDERAAQDFVQWLLDGGPSSGAPPPSS (not fully specified) [triple agonist of SEQ ID NO: 38]	–	2.3	–
H[Aib]QGTFTSDKSKYLDECAAQDFVQWLLDGGPSSGAPPPS (not fully specified) [triple agonist of SEQ ID NO: 41]	< 0.1	34.3	< 0.1
H[Aib]QGTFTSDYSKYLDEKRQKEFVNWLLAQKC (bridge 16-20) [triple agonist of SEQ ID NO: 34]	0.6	19.1	0.92
[Acetyl(2-(4-imidazolyl))][Aib]QGTFTSDKSKYLDERAAQDFVQWLLDGGPSSGAPPPS (not fully specified) [triple agonist of SEQ ID NO: 62]	< 0.1	5.2	< 0.1
H[Aib]QGTFTSDYSKYLCEKRQKEFVQWLLNGGPSSGAPPPSG (bridge 16-20) [triple agonist of SEQ ID NO: 36]	0.2	37.4	0.39
H[Aib]QGTFTSDYSKYLDGQHAQCFVAWLLAGGGPSSGAPPPS [triple agonist of SEQ ID NO: 39]	< 0.1	13.9	0.53
H[Aib]QGTFTSDVSSYLLGQQQKEFIAWLVKGC [triple agonist of SEQ ID NO: 4]	< 0.1	8.5	< 0.1
[Acetyl(2-(4-imidazolyl))][Aib]QGTFTSDYSICMDEKHQKDFVNWLLNTK (bridge 16-20; not fully specified) [triple agonist of SEQ ID NO: 59]	4	40.3	< 0.1
H[Aib]QGTFTSDYSIAMDEIHQKDFVNWLLAQC (bridge 16-20; not fully specified) [triple agonist of SEQ ID NO: 55]	2.4	27.1	0.7
HGQGTFTSDCSKQLDGQAAQEFVAWLLAGGPSSGAPPPS [triple agonist of SEQ ID NO: 44]	< 0.1	1.3	< 0.1
HGQGTFTSDCSKYMDGQAAQDFVAWLLAGGPSSGAPPPS [triple agonist of SEQ ID NO: 45]	< 0.1	6.6	< 0.1
HGQGTFTSDCSKYLDGQRAQEFVAWLLAGGPSSGAPPPS [triple agonist of SEQ ID NO: 47]	< 0.1	2.4	< 0.1
HGQGTFTSDCSKYLDGQRAQDFVNWLLAGGPSSGAPPPS [triple agonist of SEQ ID NO: 48]	< 0.1	1.5	< 0.1
HGQGTFTSDCSKYLDEQHAQEFVAWLLAGGPSSGAPPPS [triple agonist of SEQ ID NO: 46]	< 0.1	1.4	< 0.1
[Acetyl(2-(4-imidazolyl))][Aib]QGTFTSDYSICMDEIHQKDFVNWLLNTK (bridge 16-20) [triple agonist of SEQ ID NO: 49]	3.3	29.8	< 0.1
H[Aib]QGTFTSDVSSYLDGQAAKEFVAWLLKGC [triple agonist of SEQ ID NO: 6]	< 0.1	17	< 0.1
H[Aib]EGTFTSDYSIAMDEIHQKDFVNWLLAQC (bridge 16-20; not fully specified) [triple agonist of SEQ ID NO: 53]	1.3	161	8.4
H[Aib]EGTFTSDYSIAMDEIHQKDFVDWLLAEC (bridge 16-20) [triple agonist of SEQ ID NO: 54]	0.1	30.6	1.4
